Positions count from the first letter of the chain named.

Consider 26 molecules from patent publication US20080058263A1 (published 2008).

T1: VEGFR-3-Fc (UniProt P35916 25-328)
T1 construct: domain: first three Ig domains; conditioned supernatant of 293T cells; also called VEGFR-3-Fc fusion protein; not shown: Fc fragment of the pIg vector
T1 sequence (looked up): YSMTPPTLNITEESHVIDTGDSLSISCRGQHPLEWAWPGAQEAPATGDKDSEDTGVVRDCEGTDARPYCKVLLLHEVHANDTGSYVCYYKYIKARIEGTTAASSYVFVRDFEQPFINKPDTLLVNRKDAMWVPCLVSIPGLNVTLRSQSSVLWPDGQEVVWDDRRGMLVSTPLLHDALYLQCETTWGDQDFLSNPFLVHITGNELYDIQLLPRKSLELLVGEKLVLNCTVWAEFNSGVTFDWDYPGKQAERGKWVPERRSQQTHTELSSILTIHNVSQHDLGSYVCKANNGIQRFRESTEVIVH

B1: 61-6 (ligand)
chain: GQNHHEVVKFMDVYQRSYCHPREVCIDVGKEYPDEIEYIFKPSCVPLMRCGGCCNDEGLECMNTSTSYLSKTLFEIKPHQGQHIGEMSFANHTSCRCMSKLD
B2: 62-8 (ligand)
chain: GQNHHEVVKFMDVYQRSYCHPREVCIDVGKEFGVATNTFFKPPCVSVYRCGGCCNSEGLQCMNTSTSYLSKTLFEIKPHQGQHIGEMSFANHTSCRCMSKLD
B3: 63-6 (ligand)
chain: B1 chain with S43P, P46S, L47V, M48Y
B4: 61-8 (ligand)
chain: B1 chain with D56S, E60Q
B5: 64-8 (ligand)
chain: B2 chain with P43S, S46P, V47L, Y48M
B6: 62-6 (ligand)
chain: B2 chain with S56D, Q60E
B7: 61-13 (ligand)
chain: GQNHHEVVKFMDVYQRSYCHPREVCIDVGKEYPDEIEYIFKPSCVPLMRCGGCCNDEGLECVPTEESNITMQIMRITVPLSQGPKPVTISFANHTSCRCMSKLD
B8: 62-13 (ligand)
chain: GQNHHEVVKFMDVYQRSYCHPREVCIDVGKEFGVATNTFFKPPCVSVYRCGGCCNDEGLECVPTEESNITMQIMRITVPLSQGPKPVTISFANHTSCRCMSKLD
B9: 13-13 (ligand)
chain: GQNHHEVVKFMDVYQRSYCHPIETLVDIFQEYPDEIEYIFKPPCVSVYRCGGCCNDEGLECVPTEESNITMQIMRITVPLSQGPKPVTISFANHTSCRCMSKLD
B10: 63-9 (ligand)
chain: GQNHHEVVKFMDVYQRSYCHPREVCIDVGKEYPDEIEYIFKPPCVSVYRCGGCCNDEGLECVPTEESNITMQIMRITVPLSQGPKPVTISFLQHNKCECRPKKD
B11: 43-13 (ligand)
chain: AHYNTEILKFMDVYQRSYCHPREVCIDVGKEYPDEIEYIFKPPCVSVYRCGGCCNDEGLECVPTEESNITMQIMRITVPLSQGPKPVTISFANHTSCRCMSKLD
B12: 62-14 (ligand)
chain: GQNHHEVVKFMDVYQRSYCHPREVCIDVGKEFGVATNTFFKPPCVSVYRCGGCCNDEGLECMNTSTSYLSKTLFEITVPLSQGPKPVTISFANHTSCRCMSKLD
B13: 62-10 (ligand)
chain: B12 chain with A92L, N93Q, T95N, S96K, R98E, M100R, S101P, L103K
B14: 44-14 (ligand)
chain: AHYNTEILKFMDVYQRSYCHPREVCIDVGKEFGVATNTFFKPSCVPLMRCGGCCNDEGLECMNTSTSYLSKTLFEITVPLSQGPKPVTISFANHTSCRCMSKLD
B15: 42-16 (ligand)
chain: B14 chain with S43P, P46S, L47V, M48Y, D56S, E60Q
B16: 63-16 (ligand)
chain: B12 chain with F32Y, G33P, V34D, A35E, T36I, N37E, T38Y, F39I, D56S, E60Q
B17: 64-10 (ligand)
chain: GQNHHEVVKFMDVYQRSYCHPREVCIDVGKEFGVATNTFFKPSCVPLMRCGGCCNDEGLECMNTSTSYLSKTLFEITVPLSQGPKPVTISFLQHNKCECRPKKD
B18: 62-12 (ligand)
chain: B17 chain with S43P, P46S, L47V, M48Y, D56S, E60Q
B19: 64-16 (ligand)
chain: B12 chain with P43S, S46P, V47L, Y48M, D56S, E60Q
B20: 64-14 (ligand)
chain: B12 chain with P43S, S46P, V47L, Y48M
B21: 42-14 (ligand)
chain: B14 chain with S43P, P46S, L47V, M48Y
B22: 62-16 (ligand)
chain: B12 chain with D56S, E60Q
B23: 63-14 (ligand)
chain: B12 chain with F32Y, G33P, V34D, A35E, T36I, N37E, T38Y, F39I
B24: 63-1 (ligand)
chain: GQNHHEVVKFMDVYQRSYCHPREVCIDVGKEYPDEIEYIFKPPCVSVYRCGGCCNDEGLECVPTEESNITMQIMRIKPHQGQHIGEMSFLQHNKCECRPKKD
B25: 73-7 (ligand)
chain: GQNHHEVVKSIDNEWRKTQCMPREVCIDVGKEYPDEIEYIFKPPCVSVYRCGGCCNSEGLQCVPTEESNITMQIMRIKPHQGQHIGEMSFANHTSCRCMSKLD
B26: 62-11 (ligand)
chain: B8 chain with D56S, E60Q, A92L, N93Q, T95N, S96K, R98E, M100R, S101P, L103K

T2 sequence (P35968 20-322): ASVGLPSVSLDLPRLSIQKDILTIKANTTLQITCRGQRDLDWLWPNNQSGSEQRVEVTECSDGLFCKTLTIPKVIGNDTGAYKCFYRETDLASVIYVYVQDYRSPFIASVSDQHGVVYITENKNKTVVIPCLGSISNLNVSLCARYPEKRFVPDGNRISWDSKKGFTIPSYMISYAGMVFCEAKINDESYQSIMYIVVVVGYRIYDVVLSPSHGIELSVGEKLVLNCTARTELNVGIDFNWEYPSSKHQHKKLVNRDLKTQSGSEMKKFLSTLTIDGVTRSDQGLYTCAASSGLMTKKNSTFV
T3 sequence (P17948 27-338): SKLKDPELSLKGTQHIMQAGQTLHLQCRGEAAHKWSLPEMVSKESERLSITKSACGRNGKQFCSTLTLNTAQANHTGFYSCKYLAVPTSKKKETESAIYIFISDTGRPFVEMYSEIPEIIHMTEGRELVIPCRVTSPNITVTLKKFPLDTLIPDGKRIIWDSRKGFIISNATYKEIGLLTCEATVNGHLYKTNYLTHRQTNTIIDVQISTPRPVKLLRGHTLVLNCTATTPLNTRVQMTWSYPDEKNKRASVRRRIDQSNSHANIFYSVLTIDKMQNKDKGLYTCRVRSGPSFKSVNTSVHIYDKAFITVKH

The target of one assay is T1, VEGFR-3-Fc. The experiment in a line: receptor-Fc IP. Put shortly:
(§1)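 fusion protein at 400 ng/ml in an IP mix (PBS, 1.5% BSA, 0.06% Tween 20, 3 μg/ml heparin) was combined with sample supernatant at a 1:2 ratio. Bound ligand captured by immunoprecipitation with pentahistidine antibody.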
Take B1: the binding result is recorded as “no binding”.
For the molecule B2, the binding result was “no binding”.
B3: the binding result was “no binding”.
For the molecule B4, the binding result is “no binding”.
Turning to B5, the binding result was “no binding”.
As to B6, the binding result is “no binding”.
Take B7: the binding result was “no binding”.
As to B8, the binding result is “no binding”.
Regarding B9, the binding result is “no binding”.
Take B10: the binding result was “no binding”.
As to B11, the binding result is listed as “no binding”.
Take B12: the binding result is “no binding”.
On to B13, for which the binding result is “no binding”.
The same measure, in the same setting: the same measure for B14: “no binding”; for B15: “no binding”.
On to B16, for which the binding result is recorded as “no binding”.
Regarding B17, the binding result is “no binding”.
Still for that read-out and setting: with B18 the entry was “no binding”; with B19, “no binding”; with B20, “no binding”.
As for B21, the binding result is “no binding”.
Turning to B22, the binding result is “no binding”.
Regarding B23, the binding result is recorded as “no binding”.
In the case of B24, the binding result is on record as “no binding”.
Same read-out and setting: the same measure for B25: “no binding”; for B26: “binds”.

A further assay addresses T2, VEGFR-2-Fc (UniProt P35968 20-322).
T2 construct: domain: first 3 Ig domains; conditioned supernatant of 293T cells; also called VEGFR-2-Fc fusion protein; not shown: Fc fragment of the pIg vector
The experiment in a line: receptor-Fc IP. Put shortly:
as §1
B1: the binding result was “no binding”.
Regarding B2, the binding result is listed as “binds”.
With B3, the binding result is recorded as “binds”.
Still for that read-out and setting: with B4 the entry was “no binding”; with B5, “no binding”; with B6, “no binding”.
The same measure, in the same setting: the same measure for B7: “no binding”; for B8: “binds”.
Turning to B9, the binding result is on record as “no binding”.
Still for that read-out and setting: the same measure for B10: “no binding”; for B11: “no binding”.
For B12, the binding result is “no binding”.
As to B13, the binding result is recorded as “binds”.
Take B14: the binding result is on record as “no binding”.
Consider B15, for which the binding result is on record as “no binding”.
B16: the binding result is recorded as “no binding”.
On to B17, for which the binding result is given as “no binding”.
Regarding B18, the binding result is listed as “no binding”.
For the molecule B19, the binding result was “no binding”.
B20: the binding result is reported as “no binding”.
Same read-out and setting: the same measure for B21: “no binding”.
For the molecule B22, the binding result is given as “no binding”.
The same measure, in the same setting: with B23 the entry was “no binding”.
For B24, the binding result is listed as “binds”.
In the case of B25, the binding result is on record as “binds”.
As for B26, the binding result is “binds”.

A further assay concerns the target T3, VEGFR-1-Fc (UniProt P17948 27-338).
T3 construct: domain: first three Ig domains; expressed in Drosophila S2 cells, purified on Protein A sepharose; also called VEGFR-1-Fc fusion protein; not shown: Fc fragment from the Signal-pIgPlus vector
The experiment in a line: receptor-Fc IP. Put shortly: as §1
For the molecule B1, the binding result is “no binding”.
B2: the binding result is reported as “no binding”.
For B3, the binding result is listed as “no binding”.
For the molecule B4, the binding result is on record as “no binding”.
With B5, the binding result is recorded as “no binding”.
On to B6, for which the binding result is “no binding”.
On the same count and under the same terms, the same measure for B7: “no binding”.
Regarding B8, the binding result is “no binding”.
With B9, the binding result is reported as “binds”.
In the case of B10, the binding result is reported as “no binding”.
Consider B11, for which the binding result is “no binding”.
For B12, the binding result was “no binding”.
As for B13, the binding result was “no binding”.
Consider B14, for which the binding result was “no binding”.
With B15, the binding result was “no binding”.
On to B16, for which the binding result is recorded as “no binding”.
Turning to B17, the binding result is “no binding”.
Regarding B18, the binding result is listed as “no binding”.
On the same count and under the same terms, the same measure for B19: “no binding”.
Same read-out and setting: the same measure for B20: “no binding”; for B21: “no binding”.
B22: the binding result was “no binding”.
On to B23, for which the binding result is reported as “no binding”.
As for B24, the binding result is recorded as “binds”.
Turning to B25, the binding result is reported as “no binding”.
With B26, the binding result was “no binding”.
